According to patent publication US20230220589A1:

B1: engineered M44-L binder (SEQ ID NO: 31) (designed binder, not shown: small tags and cut ends; large carriers)
chain: QDSTQNLIPAPPLISVPLQPGFWTERFQGRWFLVGFAGNAVQKERQSRLTMQSLILELQEDNSYNITAINVRGQGCRYIISTLVPSSRPGQFTLGNIHSYPQIQSLDVQVADTDYDQFAMVFLQGTSENKQYFEVALAGRTKGLSDELKERFVSFAKSLGLKDNNIVFSVPTDQCIDN
B2: engineered M44-L binder (SEQ ID NO: 21) (designed binder, not shown: small tags and cut ends; large carriers)
chain: QVSVQPNFQQDKFLGRWFYAGHASNSSWYREKVAALSMAKLVVAPATDGGLNATETFLRKNQCETITSLLQPAGSLGSYSSRSPHGGSTWSTSVVETDYDQYALLYLQGSKGPGEDFRGAILASRTQTPRAELKEKFTAFSKAQGFTEDTIVFLPQTDKCMTEQ
B3: engineered M44-A binder (SEQ ID NO: 42) (designed binder, not shown: small tags and cut ends; large carriers)
chain: QVSVQPNFQQDKFLGRWFVAGLASNSSWDREKVAALSGAKMVVAPATDGGLNVTRTMLRKNQCETYTGLLQPAGSLGSYSWRSPHPGSTGSESVVETDYDQYALVYGQGSKGPGEDLRAAALWSRTQTPRAELKEKFTAFSKAQGFTEDTIVFLPQTDKCMTEQ

target: M44-modified F NTAA target peptides (M44-F-P2-peptide); assay: encoding assay; P2 A;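 note: fraction of recording tags encoded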

| Binder | encoding yield |
| --- | --- |
| B1 | 0.11 |
| B2 | 0.07 |
| B3 | 0.06 |

target: M44-modified A NTAA target peptides (M44-A-P2-peptide); assay: encoding assay; P2 A

| Binder | encoding yield |
| --- | --- |
| B1 | 0.02 |
| B2 | 0.01 |
| B3 | 0.11 |

target: M44-modified V NTAA target peptides; assay: encoding assay; P2 A;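 note: fraction of recording tags encoded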

| Binder | encoding yield |
| --- | --- |
| B1 | 0.02 |
| B2 | 0.01 |
| B3 | 0.03 |

target: M44-modified L NTAA target peptides (M44-L-P2-peptide); assay: encoding assay; P2 A;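 note: fraction of recording tags encoded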

| Binder | encoding yield |
| --- | --- |
| B1 | 0.14 |
| B2 | 0.19 |
| B3 | 0.04 |

target: M44-modified Y NTAA target peptides (M44-Y-P2-peptide); assay: encoding assay; P2 A;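 note: fraction of recording tags encoded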

| Binder | encoding yield |
| --- | --- |
| B1 | 0.04 |
| B2 | 0.01 |
| B3 | 0.03 |

target: M44-modified N NTAA target peptides; assay: encoding assay; P2 A

| Binder | encoding yield |
| --- | --- |
| B1 | 0.02 |
| B2 | 0.01 |
| B3 | 0.02 |

target: M44-modified G NTAA target peptides (M44-G-P2-peptide); assay: encoding assay; P2 A;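 note: fraction of recording tags encoded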

| Binder | encoding yield |
| --- | --- |
| B1 | 0.03 |
| B2 | 0.01 |
| B3 | 0.04 |

target: M44-modified H NTAA target peptides; assay: encoding assay; P2 A

| Binder | encoding yield |
| --- | --- |
| B1 | 0.01 |
| B2 | 0.01 |
| B3 | 0.01 |

target: M44-modified Q NTAA target peptides; assay: encoding assay; P2 A

| Binder | encoding yield |
| --- | --- |
| B1 | 0.02 |
| B2 | 0.01 |
| B3 | 0.03 |

target: M44-modified I NTAA target peptides (M44-I-P2-peptide); assay: encoding assay; P2 S

| Binder | encoding yield |
| --- | --- |
| B1 | 0.07 |
| B2 | 0.18 |
| B3 | 0.03 |

target: M44-modified F NTAA target peptides (M44-F-P2-peptide); assay: encoding assay; P2 S;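 note: fraction of recording tags encoded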

| Binder | encoding yield |
| --- | --- |
| B1 | 0.06 |
| B2 | 0.07 |
| B3 | 0.03 |

target: M44-modified A NTAA target peptides (M44-A-P2-peptide); assay: encoding assay; P2 S

| Binder | encoding yield |
| --- | --- |
| B1 | 0.02 |
| B2 | 0.01 |
| B3 | 0.1 |

target: M44-modified V NTAA target peptides; assay: encoding assay; P2 S;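 note: fraction of recording tags encoded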

| Binder | encoding yield |
| --- | --- |
| B1 | 0.03 |
| B2 | 0.04 |
| B3 | 0.03 |

target: M44-modified T NTAA target peptides; assay: encoding assay; P2 S

| Binder | encoding yield |
| --- | --- |
| B1 | 0.03 |
| B2 | 0.01 |
| B3 | 0.06 |

target: M44-modified L NTAA target peptides (M44-L-P2-peptide); assay: encoding assay; P2 S;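 note: fraction of recording tags encoded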

| Binder | encoding yield |
| --- | --- |
| B1 | 0.15 |
| B2 | 0.27 |
| B3 | 0.05 |

target: M44-modified Y NTAA target peptides (M44-Y-P2-peptide); assay: encoding assay; P2 S;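 note: fraction of recording tags encoded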

| Binder | encoding yield |
| --- | --- |
| B1 | 0.07 |
| B2 | 0.04 |
| B3 | 0.06 |

target: M44-modified M NTAA target peptides; assay: encoding assay; P2 S

| Binder | encoding yield |
| --- | --- |
| B1 | 0.07 |
| B2 | 0.07 |
| B3 | 0.05 |

target: M44-modified P NTAA target peptides; assay: encoding assay; P2 S;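 note: fraction of recording tags encoded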

| Binder | encoding yield |
| --- | --- |
| B1 | 0.01 |
| B2 | 0.01 |
| B3 | 0.01 |

target: M44-modified G NTAA target peptides (M44-G-P2-peptide); assay: encoding assay; P2 S;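 note: fraction of recording tags encoded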

| Binder | encoding yield |
| --- | --- |
| B1 | 0.04 |
| B2 | 0.01 |
| B3 | 0.05 |

target: M44-modified H NTAA target peptides; assay: encoding assay; P2 S

| Binder | encoding yield |
| --- | --- |
| B1 | 0.03 |
| B2 | 0.01 |
| B3 | 0.01 |

target: M44-modified Q NTAA target peptides; assay: encoding assay; P2 S

| Binder | encoding yield |
| --- | --- |
| B1 | 0.02 |
| B2 | 0.01 |
| B3 | 0.03 |

target: M44-modified E NTAA target peptides; assay: encoding assay; P2 G;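 note: fraction of recording tags encoded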

| Binder | encoding yield |
| --- | --- |
| B1 | 0.02 |
| B2 | 0.01 |
| B3 | 0.03 |

target: M44-modified I NTAA target peptides (M44-I-P2-peptide); assay: encoding assay; P2 G

| Binder | encoding yield |
| --- | --- |
| B1 | 0.09 |
| B2 | 0.17 |
| B3 | 0.08 |

target: M44-modified W NTAA target peptides; assay: encoding assay; P2 G;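 note: fraction of recording tags encoded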

| Binder | encoding yield |
| --- | --- |
| B1 | 0.04 |
| B2 | 0.01 |
| B3 | 0.01 |

target: M44-modified F NTAA target peptides (M44-F-P2-peptide); assay: encoding assay; P2 G;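 note: fraction of recording tags encoded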

| Binder | encoding yield |
| --- | --- |
| B1 | 0.09 |
| B2 | 0.03 |
| B3 | 0.04 |

target: M44-modified V NTAA target peptides; assay: encoding assay; P2 G;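 note: fraction of recording tags encoded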

| Binder | encoding yield |
| --- | --- |
| B1 | 0.02 |
| B2 | 0.02 |
| B3 | 0.05 |

target: M44-modified T NTAA target peptides; assay: encoding assay; P2 G

| Binder | encoding yield |
| --- | --- |
| B1 | 0.04 |
| B2 | 0.02 |
| B3 | 0.11 |

target: M44-modified L NTAA target peptides (M44-L-P2-peptide); assay: encoding assay; P2 G;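 note: fraction of recording tags encoded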

| Binder | encoding yield |
| --- | --- |
| B1 | 0.09 |
| B2 | 0.07 |
| B3 | 0.03 |

target: M44-modified Y NTAA target peptides (M44-Y-P2-peptide); assay: encoding assay; P2 G;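 note: fraction of recording tags encoded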

| Binder | encoding yield |
| --- | --- |
| B1 | 0.03 |
| B2 | 0.01 |
| B3 | 0.02 |

target: M44-modified M NTAA target peptides; assay: encoding assay; P2 G

| Binder | encoding yield |
| --- | --- |
| B1 | 0.02 |
| B2 | 0.01 |
| B3 | 0.01 |

target: M44-modified Q NTAA target peptides; assay: encoding assay; P2 G

| Binder | encoding yield |
| --- | --- |
| B1 | 0.01 |
| B2 | 0.01 |
| B3 | 0.02 |

target: M44-modified S NTAA target peptides; assay: encoding assay; P2 P

| Binder | encoding yield |
| --- | --- |
| B1 | 0.04 |
| B2 | 0.02 |
| B3 | 0.05 |

target: M44-modified E NTAA target peptides; assay: encoding assay; P2 P;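 note: fraction of recording tags encoded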

| Binder | encoding yield |
| --- | --- |
| B1 | 0.02 |
| B2 | 0.01 |
| B3 | 0.03 |

target: M44-modified I NTAA target peptides (M44-I-P2-peptide); assay: encoding assay; P2 P

| Binder | encoding yield |
| --- | --- |
| B1 | 0.06 |
| B2 | 0.01 |
| B3 | 0.03 |

target: M44-modified F NTAA target peptides (M44-F-P2-peptide); assay: encoding assay; P2 P;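 note: fraction of recording tags encoded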

| Binder | encoding yield |
| --- | --- |
| B1 | 0.08 |
| B2 | 0.09 |
| B3 | 0.04 |

target: M44-modified A NTAA target peptides (M44-A-P2-peptide); assay: encoding assay; P2 P

| Binder | encoding yield |
| --- | --- |
| B1 | 0.03 |
| B2 | 0.01 |
| B3 | 0.03 |

target: M44-modified L NTAA target peptides (M44-L-P2-peptide); assay: encoding assay; P2 P;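 note: fraction of recording tags encoded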

| Binder | encoding yield |
| --- | --- |
| B1 | 0.07 |
| B2 | 0.09 |
| B3 | 0.04 |

target: M44-modified Y NTAA target peptides (M44-Y-P2-peptide); assay: encoding assay; P2 P;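 note: fraction of recording tags encoded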

| Binder | encoding yield |
| --- | --- |
| B1 | 0.03 |
| B2 | 0.02 |
| B3 | 0.02 |

target: M44-modified D NTAA target peptides; assay: encoding assay; P2 P;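 note: fraction of recording tags encoded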

| Binder | encoding yield |
| --- | --- |
| B1 | 0.02 |
| B2 | 0.01 |
| B3 | 0.04 |

target: M44-modified M NTAA target peptides; assay: encoding assay; P2 P

| Binder | encoding yield |
| --- | --- |
| B1 | 0.02 |
| B2 | 0.04 |
| B3 | 0.02 |

target: M44-modified N NTAA target peptides; assay: encoding assay; P2 P

| Binder | encoding yield |
| --- | --- |
| B1 | 0.02 |
| B2 | 0.01 |
| B3 | 0.02 |

target: M44-modified H NTAA target peptides; assay: encoding assay; P2 P

| Binder | encoding yield |
| --- | --- |
| B1 | 0.03 |
| B2 | 0.01 |
| B3 | 0.04 |

target: M44-modified Q NTAA target peptides; assay: encoding assay; P2 P

| Binder | encoding yield |
| --- | --- |
| B1 | 0.02 |
| B2 | 0.01 |
| B3 | 0.03 |

target: M44-modified I NTAA target peptides (M44-I-P2-peptide); assay: encoding assay; P2 D

| Binder | encoding yield |
| --- | --- |
| B1 | 0.01 |
| B2 | 0 |
| B3 | 0.02 |

target: M44-modified F NTAA target peptides (M44-F-P2-peptide); assay: encoding assay; P2 D;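 note: fraction of recording tags encoded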

| Binder | encoding yield |
| --- | --- |
| B1 | 0.03 |
| B2 | 0.01 |
| B3 | 0.06 |

target: M44-modified A NTAA target peptides (M44-A-P2-peptide); assay: encoding assay; P2 D

| Binder | encoding yield |
| --- | --- |
| B1 | 0.03 |
| B2 | 0.01 |
| B3 | 0.03 |

target: M44-modified L NTAA target peptides (M44-L-P2-peptide); assay: encoding assay; P2 D;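 note: fraction of recording tags encoded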

| Binder | encoding yield |
| --- | --- |
| B1 | 0.04 |
| B2 | 0.01 |
| B3 | 0.04 |

target: M44-modified Y NTAA target peptides (M44-Y-P2-peptide); assay: encoding assay; P2 D;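 note: fraction of recording tags encoded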

| Binder | encoding yield |
| --- | --- |
| B1 | 0.03 |
| B2 | 0.01 |
| B3 | 0.03 |

target: M44-modified N NTAA target peptides; assay: encoding assay; P2 D

| Binder | encoding yield |
| --- | --- |
| B1 | 0.02 |
| B2 | 0.01 |
| B3 | 0.02 |

target: M44-modified Q NTAA target peptides; assay: encoding assay; P2 D

| Binder | encoding yield |
| --- | --- |
| B1 | 0.02 |
| B2 | 0.01 |
| B3 | 0.02 |
